The values that follow come from the RNAGym collection of RNA variant scans (doi:10.1073/pnas.2313332121).

Variants at the floor of the assay were thinned out.

B1: TPR 5TU (parent)
chain: GGAUCUUCUCGAUCUAACAAAAAAGACAAAUCUGCCACAAAGCUUGAGAGCAUCUUCGGAUGCAGAGGCGGCAGCCUUCGGUGGCGCGAUAGCGCCAACGUUCUCAACUAUGACACGCAAAACGCGUGCUCCGUUGAAUGGAGUUUAUCAUG

The variants in this series derive from B1. Nature of the series: polymerase ribozyme fitness, log enrichment relative to wild type (log ratio); higher = more active; in vitro selection for triplet polymerase activity. The gist of the method: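 Each subunit of a heterodimeric triplet polymerase ribozyme was mutagenized into a library by PCR, transcribed, and subjected to one round of in vitro selection, run in triplicate. Libraries were annealed with a biotinylated primer, the partner subunit and triplets, incubated frozen at −7 °C, and extended constructs were gel-excised, captured on streptavidin beads and recovered by RT-PCR. Input and output libraries were sequenced on Illumina, keeping genotypes with ≥10 input reads and ≥1 read per output. Fitness is log base 2 of genotype enrichment divided by wild-type enrichment, from inverse-variance-weighted replicate averages.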
Take GGAUCUUCUCGAUCGAACAAAAAAGACAAAUCUGCCACAACGCUUGAGAGCAUCUUCGGAUGCAGAGGCGGCAGCCUUCGGUGGCGCGAUAGUGCCAACGUUCUCAACUAUGACACGCAAAACGCGUGCUCCGUUGAAUGGAGUUUAUCAUG [U15G A41C C93U]: the “polymerase ribozyme fitness (log ratio)” value is -1.93.
The figure for GGAUCUUCUCGAUCUAACAAAAAAGACAAAUCUGCCACAAAGCUUGCGAGCAUCUUCGGAUGCAGAGGCGGCAGCCUUCGGUGGCGCGAUAGCGCCAAUGUUCUCAACUAUGACACGCAAAUCGCGUGCUCCGUUGAAUGAAGUUUAUCAUG [A47C C99U A122U G141A] is -3.39; for GGAUCUUCUGGAUCUAACAAAAAAGACAAAUCUGCCACAAAGCUUGAGAGCAACUUCGGAUGCAGAGGCGGCAGCCUUCGGUGGCGCGAUAGCGCCAACGUUCUCAACUAUGACACGCAAAACGCGUGCUCCGUUGAAUGGAGUUUAUCCUG [C10G U53A A150C] it is not above -4.2; for GGUUCUUCUCGAUCUAACAAAAAAGACAAAUCUGCCACAAAGCUUGAGAGCAUCUUCGGAUGCAGAGGCGGCAGCCUUCGGUGGGGCGAUAGCGCCAACGUUCUCAACUAUGACACGCAAAACGAGUGCUCCGUUGAAUGGAGAUUAUCAUG [A3U C85G C125A U144A] it is -3.46.
The figure for GGGUCUUCGCGAUCUAACAAAAAAGACAAAUCUGCCACAAAGCUUGAGAGUAUCUUCGGAUGCAGACGCGGCAGCCUUCGCUGGCGCGGUAGCGCCGACGUUCUCAACUAUGACACGCAAAACGCGUGCUCCGUUGAAUGGAGUUUAUCAUG [A3G U9G C51U G67C G81C A89G A97G] is not above -4.2.
Consider GGAUCUUCUCGAUCUAACAAAAAAGACAAAUCUGCCACAAAGCUUGAGAGCAUCUUCGGAUGCAGAGGCGGCAGCCUUCGGUGGUGCGAUAGCGCCAACGUUCACAACUAUGACACGCAAAACGCGUGCUCCGUUGAAUGGAGAUUAUCAUG [C85U U104A U144A], for which the “polymerase ribozyme fitness (log ratio)” value is -0.68.
Then GGAUAUUCUCGAUCUAACAAAAAAGACAACUCUGCCACAAAGCUUGAGAGCAUCUUCGGAUGCAGAGGCGGCAGCCUUCGGGGGCGCGAUAGCGCCAACGUCCUCAACUAUGACACGCAAAACGCGUGCUUCGUUGAAUGGAGUUUAUCAUG [C5A A30C U82G U102C C131U], with not above -4.2; and GGAUCUUCGCGAUCUAACAAAAAAGAGGAAUCUGCCACAACGCUUGAGAGCAUCUUUGGAUGCAGAGGCGGCAGCCUUCGGGGGCGCGAUACCGCCAACGUUCUCAACUAUGACACGCAAAACGCGUGCUCCGUUGAAUUGAGUUUAUCAUG [U9G C27G A28G A41C C57U U82G G92C G140U], with not above -4.2; and GGAUCUUCUCGAUCUAACAAUAAAGACAAAUCUGCCACAAAGCUUGAGAGCAUCUUAGGAUGCAGAGGCGGCAGCCUUCGGUGGCGCGAUAGGGCCAACGUUCUCAACUAUGACACGCAAAACGCGUGCUCCGUUGAAUGGCGUUUAUCAUG [A21U C57A C93G A142C], with -3.67.
The figure for GGAUCUUCUCGAUCUAACAAAAAGGACAAAUCUGCCACAAAGCUUGAGAGCAUCUUCGGGUGCAGAGACGGCAGCCUUCGGUGGCCCGAUAGCGCCAACGUUCUCAACUAUGACACGCAAAACCCGUGCUCCGUUGAAUGGAGUUUAUCAUG [A24G A60G G68A G86C G124C] is not above -4.2.
With GGAUCUUCUCGAUCUAACAAAAAAGACAAAUCUGCCACAAAGCUUGAGAGCAUCUUCGGAUGCAGAGGCGGCAGCCUUCGUUGGCGCGAUAGCGCCAACGUUCUCAACUAUGACACGCAAAACGAGUGCUCCGUUGAAUGGAGUUUAUCAUG [G81U C125A], the “polymerase ribozyme fitness (log ratio)” value is -0.8.
For GGAUCUUCUCGAUCUAACAAAAAAGACAAAUCUGCCACAAAGCUUCAGAGCAUCUUCGGAUGCAGAGGCGGCAGCCUUCGGUGGGGCAAUAGCGCCAACGUUCUCAACUAUGACACGUAAAACGCGUGCUCCGUUGAAUGGAGGUUAUCAUG [G46C C85G G88A C118U U144G], the “polymerase ribozyme fitness (log ratio)” value was not above -4.2.
GGAUGUUCUCGAUCUAAGAAAAAAGACAAAUCUGCCACAAAGCUUGAUAGCAACUUCGGAUGCAGAGGCGGCAGCCUUCGGUGGCGCGAUAGCGCCAACGUUGUCAACUAUGACACGCAAAACGCGUGCUCCGUUGAAUGGAGUUUAUCAUG [C5G C18G G48U U53A C103G]: the “polymerase ribozyme fitness (log ratio)” value is -3.62.
The figure for GGAUCUUCUCGAUCUAACAAAAAAGACAAAUCUGCCACAAAGCUUGAGAGCAUCUUCGGAUGCAGAGGCGGCAGCCUUCAGUGGCGCGAUAGCGCCAAGGUUCUCAACUAUGACACGCAAAACACGUGCUCCGUUGAAUGGAGUUUAUCAUG [G80A C99G G124A] is -0.389.
Take GGAUUUUCUCGAUCUAACAAAAAAGACAAAUCUGCCACAAAGCUUGAGAGCAUCUUUGGAUGCAGAGGCGGCAGCCUUCGGUGGCGAGAUCGCGCCAACGUUCUCAACUAUGACACGCAAAACGCGUGCUCCGUUGAAUGGAGUUUAUCAUG [C5U C57U C87A A91C]: the “polymerase ribozyme fitness (log ratio)” value was not above -4.2.
Take GGAUCUUCUCGAUCUAACAAAAAAGACAAAUCUGCCACAAAGCUUGAGAGCAUCAUCGGAUGCAGAGGCGGCAGCCUUCGGUGGCGCCACAGCGCCAACGUUCUCAACUAUGACACGCAAAGCACGUGCUCCGUUGAAUGGAGUUUAACAUG [U55A G88C U90C A122G G124A U148A]: the “polymerase ribozyme fitness (log ratio)” value is -4.18.
Then GGCUCUUCUCGAUCUAACAAAAAAGACAAAUCUGCCUCACAGCAUGAGAGCAUCUUCGGAUGCAGAGGCGGCAGCCUUCGGUGGCGCGAUAGCGCCAACGUUCUCAACUAUGACACGCAAAACGCGUGCUCAGUUGAAUGGAGUUUAUCAUG [A3C A37U A40C U44A C132A], with not above -4.2; and GGAUCUUCUCGAGCUAACAAAAAAGACAAAUCUGCCACAAAGCUUGAGAGCAUCUUCGGAUGCAGAGGCGGCAGCCUUCGGUGGCGCGAUAGAGCCAACGUUCUCAACUAUGACACGCAAAACGCGUGCUCCGUUGAAUGUAGUUUAUCAUG [U13G C93A G141U], with -4.01; and GGAUCUUCUCGAUCUAACAAAAAAGACAUAUCUGCCACAAAGCUUGAGAGCAUCUUCGGAUGCAGAGGCGGCAGCCUUCGGUGGCGCGAUAGCGCCGACGUUCUCAACUAUGACACGCAAGACGCGUGCUCCGUUGAAUCGAGUUUAUCAUG [A29U A97G A121G G140C], with not above -4.2.
